In data set [1] the target is T1, Mtb beta-clamp, OregonGreen488-labeled (Mycobacterium tuberculosis, UniProt P9WNU1 1-402).
T1 sequence: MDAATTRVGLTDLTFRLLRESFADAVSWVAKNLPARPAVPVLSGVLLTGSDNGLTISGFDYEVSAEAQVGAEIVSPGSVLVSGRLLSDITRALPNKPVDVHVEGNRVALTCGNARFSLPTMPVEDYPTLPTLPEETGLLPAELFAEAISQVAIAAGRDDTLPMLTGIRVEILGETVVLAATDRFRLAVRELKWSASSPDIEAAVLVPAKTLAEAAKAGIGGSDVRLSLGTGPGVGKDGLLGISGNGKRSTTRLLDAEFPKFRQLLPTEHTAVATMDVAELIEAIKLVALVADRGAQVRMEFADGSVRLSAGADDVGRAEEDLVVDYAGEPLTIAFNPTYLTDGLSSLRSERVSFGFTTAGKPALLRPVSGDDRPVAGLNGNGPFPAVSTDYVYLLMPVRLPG
Nature of the data set: fluorescence intensity titration (OregonGreen-labeled protein); apparent Kd; no Mg2+; 20 mM Tris-Cl pH 7.5, 1 mM DTT, 0.2 mM EDTA, 40 mM NaCl, 22 C, 200 or 500 nM labeled clamp; ex 490 nm, em 517 nm. As to conditions: protein: recombinant, tags: C-terminal 6xHis, OregonGreen488 maleimide, chain copies: 2, label: none in fluorescence assay, 32P in EMSA. A general note: Mobility shift assays separate free from complexed probe on a gel.

Data set [2] concerns the target T1, Mtb beta-clamp, OregonGreen488-labeled. Nature of the data set: fluorescence intensity titration (OregonGreen-labeled protein); apparent Kd; abstract gives 300 nM; no Mg2+; 20 mM Tris-Cl pH 7.5, 1 mM DTT, 0.2 mM EDTA, 40 mM NaCl, 22 C, 200 or 500 nM labeled clamp; ex 490 nm, em 517 nm. Conditions: protein: recombinant; tags: C-terminal 6xHis; OregonGreen488 maleimide; chain copies: 2; label: none in fluorescence assay; 32P in EMSA.

B1: nicked duplex (28-mer template + 18-mer + dA10) (dsDNA)
DNA 1: TTTTTTTTTTCCCTTGCTATACGATGGG
DNA 2: CCCATCGTATAGCAAGGG
DNA 3: AAAAAAAAAA
As to B1, the Kd in data set [1] (nicked duplex, 18-mer and 10-mer annealed to 28-mer, blunt ends) amounted to 530 nM.

B2: blunt duplex 18/18 (dsDNA)
DNA 1: CCCATCGTATAGCAAGGG
DNA 2: CCCTTGCTATACGATGGG
Regarding B2, the Kd in data set [1] (blunt) was determined as 557 nM.

B3: 18/28-mer primed template (mixed)
DNA 1: TTTTTTTTTTCCCTTGCTATACGATGGG
DNA 2: CCCATCGTATAGCAAGGG
In the case of B3, the Kd in data set [2] is 326 nM.

(Values after publication PMC3335792, “M. tuberculosis Sliding β-Clamp Does Not Interact Directly with the NAD+ -Dependent DNA Ligase”.)
